Two substances from patent US20220356216A1 can be followed below.

Experiment [1] has as its target mRFP1-sspB-Nano (mRFP1 fused to the sspB-Nano protein, his-MBP removed by TEV protease). Description: fluorescence microscopy of RFP-sspB-Nano recruitment to synthetic cells with membrane-bound protein; activation by 488 nm laser.
Experiment [2] shares this target. Put plainly: fluorescence microscopy of RFP-sspB-Nano recruitment to synthetic cells with membrane-bound protein; activation by blue laser light.
Experiment [3] shares this target. Description: fluorescence microscopy of RFP-sspB-Nano recruitment to synthetic cells with membrane-bound protein; activation by coelenterazine (bioluminescence).

Take “his-iLID (his-tagged improved light-induced dimer)”: the fold increase of mRFP1 signal at the membrane against the dark conditions in experiment [1] was 1.5 fold.

In the case of “his-Gluc-iLID (fusion of N-terminal Gaussia luciferase and C-terminal iLID with a linker peptide and an N-terminal his-tag)”, in experiment [2], the fold difference of mRFP1 intensity between dark and light conditions is above 8 fold. The substance further had a fold increase of normalized mRFP1 intensity at the membrane against the dark conditions in experiment [3] of 2.5 fold.
